Consider 94 variants from the supplement of paper PMC10567573.

The chains are these.
B1: CD69 (parent)
chain: FVAENSSLHPESGQENDATSPHFS
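Also: lentivirally expressed fusions sorted by FACS into six bins by GFP to DsRed ratio, PSI derived from sequencing read proportions per bin multiplied by bin number.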

The variants in the data set derive from B1. Nature of the data set: protein stability index of a GFP-peptide fusion (GPS, HEK-293T) (PSI 1-6); higher = more stable. Particulars: c terminus: a fixed tail appended.
In the case of FVAENSSLHPESGQENDATSIHFS [P21I], the protein stability index was 2.65.

For the variant FVAENSSLHPESGQENDATSGHFS [P21G], the protein stability index amounted to 3.04.

FVAENSSLHPESGQENDATSRHFS [P21R]: the protein stability index is 2.56.

As for FVAENSSLHPESGQENDATSMHFS [P21M], the protein stability index stood at 2.56.

For FVAENSSLHPESGQENDATSLHFS [P21L], the protein stability index came out at 2.33.

Take FVAENSSLHPESGQENDATSVHFS [P21V]: the protein stability index turned out to be 2.52.

For the variant FVAENSSLHPESGQENDATSNHFS [P21N], the protein stability index is 2.6.

In the case of FVAENSSLHPESGQENDATSAHFS [P21A], the protein stability index was 2.62.

FVAENSSLHPESGQENDATSWHFS [P21W]: the protein stability index came to 2.9.

For the variant FVAENSSLHPESGQENDATSCHFS [P21C], the protein stability index worked out at 2.64.

For the variant FVAENSSLHPESGQENDATSPHKS [F23K], the protein stability index turned out to be 4.07.

As for FVAENSSLHPESGQENDATSPHNS [F23N], the protein stability index worked out at 3.8.

With FVAENSSLHPESGQENDATSPHQS [F23Q], the protein stability index was found to be 3.8.

Consider FVAENSSLHPESGQENDATSPHDS [F23D], for which the protein stability index was 4.53.

FVAENSSLHPESGQENDATSPHGS [F23G]: the protein stability index was 3.58.

For the variant FVAENSSLHPESGQENDATSPHAS [F23A], the protein stability index turned out to be 3.55.

FVAENSSLHPESGQENDATSPHWS [F23W]: the protein stability index came to 2.02.

For FVAENSSLHPESGQENDATSPHYS [F23Y], the protein stability index was 3.09.

Regarding FVAENSSLHPESGQENDATSPHFE [S24E], the protein stability index stood at 3.75.

For the variant FVAENSSLHPESGQENDATSPHFH [S24H], the protein stability index is 3.55.

Turning to FVAENSSLHPESGQENDATSPHFG [S24G], the protein stability index was found to be 3.13.

Turning to FVAENSSLHPESGQENDATSPHFI [S24I], the protein stability index came to 2.19.

As for FVAENSSLHPESGQENDATSPHFP [S24P], the protein stability index is 2.57.

For the variant FVAENSSLHPESGQENDATSPHFR [S24R], the protein stability index came to 1.77.

Regarding FVAENSSLHPESGQENDATSPHFQ [S24Q], the protein stability index was determined as 2.78.

On to FVAENSSLHPESGQPNDATSPHFS [E15P], for which the protein stability index is 2.32.

Regarding FVAENSSLHPESGQQNDATSPHFS [E15Q], the protein stability index was 3.05.

As for FVAENSSLHPESGQKNDATSPHFS [E15K], the protein stability index amounted to 2.76.

Consider FVAENSSLHPESGQFNDATSPHFS [E15F], for which the protein stability index worked out at 1.91.

Consider FVAENSSLHPESGQSNDATSPHFS [E15S], for which the protein stability index turned out to be 2.11.

As to FVAENSSLHPESGQYNDATSPHFS [E15Y], the protein stability index was 2.08.

As for FVAENSSLHPESGQDNDATSPHFS [E15D], the protein stability index was 3.06.

Consider FVAENSSLHPESGQNNDATSPHFS [E15N], for which the protein stability index was 2.6.

As for FVAENSSLHPESGQWNDATSPHFS [E15W], the protein stability index amounted to 1.95.

On to FVAENSSLHPESGQTNDATSPHFS [E15T], for which the protein stability index was determined as 2.78.

With FVRENSSLHPESGQENDATSPHFS [A3R], the protein stability index was 2.88.

As to FVDENSSLHPESGQENDATSPHFS [A3D], the protein stability index was 2.95.

With FVEENSSLHPESGQENDATSPHFS [A3E], the protein stability index is 3.57.

Take FVIENSSLHPESGQENDATSPHFS [A3I]: the protein stability index worked out at 2.86.

On to FVKENSSLHPESGQENDATSPHFS [A3K], for which the protein stability index is 2.95.

FVPENSSLHPESGQENDATSPHFS [A3P]: the protein stability index was found to be 2.41.

As for FVGENSSLHPESGQENDATSPHFS [A3G], the protein stability index came out at 2.98.

Take FVFENSSLHPESGQENDATSPHFS [A3F]: the protein stability index was 3.02.

For FVAENSSLHPESGIENDATSPHFS [Q14I], the protein stability index was found to be 3.04.

FVAENSSLHPESGKENDATSPHFS [Q14K]: the protein stability index was 3.13.

Regarding FVAENSSLHPESGPENDATSPHFS [Q14P], the protein stability index amounted to 2.66.

As to FVAENSSLHPESGSENDATSPHFS [Q14S], the protein stability index is 2.64.

On to FVAENSSLHPESGYENDATSPHFS [Q14Y], for which the protein stability index turned out to be 2.4.

In the case of FVAENSSLHPESGNENDATSPHFS [Q14N], the protein stability index was 2.87.

As for FVAENSSLHPESGRENDATSPHFS [Q14R], the protein stability index is 2.76.

FEAENSSLHPESGQENDATSPHFS [V2E]: the protein stability index turned out to be 5.5.

Consider FMAENSSLHPESGQENDATSPHFS [V2M], for which the protein stability index amounted to 4.87.

For FNAENSSLHPESGQENDATSPHFS [V2N], the protein stability index is 5.25.

In the case of FFAENSSLHPESGQENDATSPHFS [V2F], the protein stability index stood at 5.13.

Turning to FSAENSSLHPESGQENDATSPHFS [V2S], the protein stability index was 5.39.

Regarding FLAENSSLHPESGQENDATSPHFS [V2L], the protein stability index was determined as 5.

For FVAENSSLHWESGQENDATSPHFS [P10W], the protein stability index is 2.43.

Regarding FVAENSSLHEESGQENDATSPHFS [P10E], the protein stability index stood at 3.54.

On to FVAENSSLHGESGQENDATSPHFS [P10G], for which the protein stability index was 3.29.

Consider FVAENSSLHMESGQENDATSPHFS [P10M], for which the protein stability index is 2.46.

As for FVAENSSLHAESGQENDATSPHFS [P10A], the protein stability index was 3.06.

On to FVAENSSLHNESGQENDATSPHFS [P10N], for which the protein stability index came to 3.63.

Regarding FVAENSSLHFESGQENDATSPHFS [P10F], the protein stability index was found to be 2.48.

As to FVAENSSLHTESGQENDATSPHFS [P10T], the protein stability index amounted to 3.13.

Consider FVAENSSLHQESGQENDATSPHFS [P10Q], for which the protein stability index was found to be 3.45.

Consider FVAENSSLHPESGQENDLTSPHFS [A18L], for which the protein stability index amounted to 2.85.

In the case of FVAENSSLHPESGQENDCTSPHFS [A18C], the protein stability index was 2.9.

As for FVAENSSLHPESGQENDWTSPHFS [A18W], the protein stability index amounted to 2.24.

FVAENSSLHPESGQENDETSPHFS [A18E]: the protein stability index worked out at 3.87.

Take FVAENSSLHPESGQENDQTSPHFS [A18Q]: the protein stability index is 3.53.

As for FVAENSSLHPESGQENDITSPHFS [A18I], the protein stability index amounted to 2.71.

In the case of FVAENSSLHPESGQENDPTSPHFS [A18P], the protein stability index was 3.19.

With FVAENSSLHPESGQENDFTSPHFS [A18F], the protein stability index was determined as 2.67.

On to FVAENSSLHPESGQENDATSPNFS [H22N], for which the protein stability index came out at 3.21.

For the variant FVAENSSLHPESGQENDATSPYFS [H22Y], the protein stability index was 1.72.

Turning to FVAENSSLHPESGQENDATSPFFS [H22F], the protein stability index is 1.66.

Consider FVAENSSLHPESGQENDATSPAFS [H22A], for which the protein stability index was found to be 3.21.

Regarding FVAENSSLHPESGQENDATSPTFS [H22T], the protein stability index is 3.11.

As for FVAENSSLHPESGQENDATSPMFS [H22M], the protein stability index is 2.71.

Regarding FVAENSSLHPESGQENDATSPIFS [H22I], the protein stability index was 2.45.

Take FVAENSSLHPESGQENDATSPSFS [H22S]: the protein stability index was determined as 2.86.

Turning to FVAENSSLHPESGQENDATSPKFS [H22K], the protein stability index came to 3.24.

Consider FVAFNSSLHPESGQENDATSPHFS [E4F], for which the protein stability index stood at 2.18.

As to FVASNSSLHPESGQENDATSPHFS [E4S], the protein stability index came out at 2.44.

In the case of FVAMNSSLHPESGQENDATSPHFS [E4M], the protein stability index stood at 2.1.

On to FVAVNSSLHPESGQENDATSPHFS [E4V], for which the protein stability index came to 3.2.

For the variant FVAANSSLHPESGQENDATSPHFS [E4A], the protein stability index came to 2.85.

As to FVAWNSSLHPESGQENDATSPHFS [E4W], the protein stability index is 3.23.

For FVACNSSLHPESGQENDATSPHFS [E4C], the protein stability index is 1.93.

FVAKNSSLHPESGQENDATSPHFS [E4K]: the protein stability index came to 2.89.

With FVADNSSLHPESGQENDATSPHFS [E4D], the protein stability index was found to be 2.61.

As for FVAHNSSLHPESGQENDATSPHFS [E4H], the protein stability index is 2.5.

For FVAGNSSLHPESGQENDATSPHFS [E4G], the protein stability index is 3.99.

On to FVALNSSLHPESGQENDATSPHFS [E4L], for which the protein stability index is 2.9.
